Reference: patent US5459256A, “Lipophilic, aminohydrolase-activated prodrugs” (priority 1991, dated 1995)

Columns and labels:
[1] = test system: HIV-1/IIIB (CD4^+ ATH8 cells); assay: HIV cytopathic effect inhibition assay in ATH8 cells (% protection); format: cell-based; conditions: additive alone, no test compound
Method: (§1) HIV Cytopathic Effect Inhibition Assay.
The HIV cytopathic effect inhibition assay was performed as previously described. (Mitsuya, H. & Broder, S. Proc. Nat. Acad. Sci. USA 1986, 83, 1911) Briefly, 200,000 target CD4^+ ATH8 cells were exposed to cell-free HIV-1/IIIB at a dose of 43 (or 1087 for compound 1g) TCID50 (50% tissue culture infectious dose) for 1 h, resuspended in 2 ml of fresh culture media containing interleukin 2, and cultured at 37° C. with or without test compounds in 5% CO2 -containing humidified air. On day 8 in culture, the viable cells were counted by using the dye exclusion method. All compounds, including inactives, were evaluated a minimum of two times in separate experiments. […] The % protection against the virus was determined by the following formula: 100 times [(the number of viable cells exposed to HIV-1 and cultured in the presence of the compound minus the number of viable cells exposed to HIV-1 and cultured in the absence of compound) divided by (the number of viable cells cultured alone minus the number of viable cells exposed to HIV-1 and cultured in the absence of the compound)]. The % toxicity of a compound on the target cells was determined by the following formula: 100 times [1 minus (the number of total viable cells cultured in the presence of the compound divided by the number of total viable cells cultured alone)]. […]

CD4^+ ATH8 cells = assay: Toxicity on ATH8 target cells (% toxicity, dye exclusion); format: cell-based; conditions: additive alone, no test compound
Method: as §1
The HIV cytopathic effect inhibition assay was performed as previously described. […] On day 8 in culture, the viable cells were counted by using the dye exclusion method. All compounds, including inactives, were evaluated a minimum of two times in separate experiments. Data reported in Table II are from representative tests. The % protection against the virus was determined by the following formula: 100 times [(the number of viable cells exposed to HIV-1 and cultured in the presence of the compound minus the number of viable cells exposed to HIV-1 and cultured in the absence of compound) divided by (the number of viable cells cultured alone minus the number of viable cells exposed to HIV-1 and cultured in the absence of the compound)]. The % toxicity of a compound on the target cells was determined by the following formula: 100 times [1 minus (the number of total viable cells cultured in the presence of the compound divided by the number of total viable cells cultured alone)]. Calculated percentages equal to or less than zero are expressed as 0%.

B1: ADA: adenosine deaminase (adenosine aminohydrolase, EC 3.5.4.4) from calf intestinal mucosa (protein, UniProt P56658 2-363, looked up)
Adenosine deaminase: AQTPAFNKPKVELHVHLDGAIKPETILYYGRKRGIALPADTPEELQNIIGMDKPLSLPEFLAKFDYYMPAIAGCREAVKRIAYEFVEMKAKDGVVYVEVRYSPHLLANSKVEPIPWNQAEGDLTPDEVVSLVNQGLQEGERDFGVKVRSILCCMRHQPSWSSEVVELCKKYREQTVVAIDLAGDETIEGSSLFPGHVKAYAEAVKSGVHRTVHAGEVGSANVVKEAVDTLKTERLGHGYHTLEDATLYNRLRQENMHFEVCPWSSYLTGAWKPDTEHPVVRFKNDQVNYSLNTDDPLIFKSTLDTDYQMTKNEMGFTEEEFKRLNINAAKSSFLPEDEKKELLDLLYKAYGMPSPASAEQCL
[1]
  protection by additive alone (in words): neither influenced the viability nor protected infected ATH8 cells
CD4^+ ATH8 cells
  toxicity / viability effect of additive alone (in words): neither influenced the viability
